# Several values for one entry are separate records, joined by “and”; a condition that tells them apart may be missing. Equal values may be shown once.
# B1: R87A-L88A-R89A-MIF (ligand, human, UniProt P14174 1-115, looked up)
# chain: MPMFIVNTNVPRASVPDGFLSELTQQLAQATGKPPQYIAVHVVPDQLMAFGGSSEPCALCSLHSIGKIGGAQNRSYSKLLCGLLAEAAAISPDRVYINYYDMNAANVGWNNSTFA
# notes: also called RLR mutant; MIF R87A-L88A-R89A triple mutant; source: E. coli BL21/DE3 (pET11b), purified (Q sepharose anion exchange, Superdex 75 SEC)
# B2: macrophage migration inhibitory factor (protein, UniProt P14174 2-115, looked up)
# Macrophage migration …: PMFIVNTNVPRASVPDGFLSELTQQLAQATGKPPQYIAVHVVPDQLMAFGGSSEPCALCSLHSIGKIGGAQNRSYSKLLCGLLAERLRISPDRVYINYYDMNAANVGWNNSTFA
# notes: recombinant human MIF
# Columns and labels:
# [1] = test system: MIF/CXCR4-dependent JVM-3 lymphocyte chemotaxis; assay: inhibition of MIF-mediated JVM-3 B cell chemotaxis by RLR-containing peptides; type: cell-based, human; details: 16 nM WT-MIF, pre-incubated 30 min, migration 24 h, 3–12 replicates, 2–3 experiments
# Procedure: (§1) Migration assays using the CXCR4-expressing JVM-3 B cell line were performed in a transmigration well as previously described[32] using the following modifications. Briefly, JVM-3 B cells were sub-cultured and transferred to media without FBS. A migration assay was performed using 24-well format Transwell membranes (Sigma-Corning; 5 µm pore size) containing 1 × 10^6 JVM-3 cells in the upper chamber. […] As positive control, 8 nM CXCL12 was used. Wells without chemoattractant served as negative control and were used to normalize migration effects to ‘chemotactic index’ (number of migrated cells in the presence of chemoattractant divided by the number of migrated cells in the absence of the chemoattractant) – as described previously. […] Cells were allowed to migrate for 24 h. After migration, cells in the lower chamber were counted using Countbright absolute counting beads (Invitrogen) using a FACSVerse flow cytometer (BD Biosciences, Heidelberg, Germany).
# [2] = circular dichroism spectroscopy; type: physicochemical; details: for aggregation-tendency: far-UV CD at 1, 2.5, and 5 µM, 10 mM sodium phosphate, pH 7.2, 25 °C
# Procedure: CD spectroscopy provides a good estimation of the secondary structural profile of a protein and records relative changes in average secondary structural content, e.g. when a mutated protein is compared to its wildtype counterpart.
# Far-UV circular dichroism (CD) spectra were recorded in a Jasco 700 CD spectropolarimeter (Jasco Labor- u. Datentechnik GmbH, Groß-Umstadt, Germany). Scans were recorded at 25 °C between 195 and 250 nm as an average of three scans and smoothed to obtain the final data. Spectra were collected at 1.0 nm intervals with a bandwidth of 1 nm in a buffer containing 10 mM sodium phosphate, pH 7.2. […] CD spectra are presented as a plot of mean residue ellipticities. […] Secondary structure fractions were quantitated by the Dichroweb online software webtool by deconvolutions of CD spectra using ContinLL at DichroWeb and the reference spectra set 7[43],[44].
# [3] = test system: JVM-3 B cells (CXCR4-expressing); assay: lymphocyte chemotaxis assay, JVM-3 B cells (chemoattractant); type: cell-based, human; details: for chemotactic effect compared with another chemoattractant: WT-MIF compared with CXCL12, RLR mutant compared with WT-MIF
# Procedure: JVM-3 cells (ACC-18) are a chronic B cell leukemia cell line and were kindly provided by Prof. M. Hallek, University of Cologne Medical School, Cologne, Germany. JVM-3 were grown in RPMI media with 1% penicillin/streptomycin and 10% fetal bovine serum (Invitrogen-Thermo Fisher Scientific, Karlsruhe, Germany) essentially as described previously. Miscellaneous cell culture reagents also were bought from Invitrogen-Thermo Fisher Scientific and from PAA (Pasching, Austria). LPS content of the purified WT-MIF and RLR mutant proteins was tested by limulus amoebocyte assay (LAL, Lonza, Cologne, Germany) following the manufacturer’s recommendation. All other reagents were obtained from Sigma, Merck, Roth, or Calbiochem, and were of the highest purity degree available.
# as §1
# [4] = size exclusion chromatography, oligomeric state; type: physicochemical; details: Superdex 75, 20 mM sodium phosphate, pH 7.2
# Procedure: The mutant protein was eluted from the anion exchange column via salt gradient and subjected to size exclusion chromatography (SEC) for further purification.
# Following Q sepharose, the protein was further purified by size exclusion chromatography (SEC, Superdex 75, GE Healthcare) in 20 mM sodium phosphate buffer, pH 7.2, i.e. buffer conditions compatible with MIF bioactivity.
# [5] = target: the molecule itself; assay: SEC; Superdex 75 in 20 mM sodium phosphate buffer, pH 7.2, after Q sepharose; peaks at approximately 23 and 38 kDa
# [6] = test system: human CXCR4 expressed in S. cerevisiae; details: yeast CXCR4 signaling system, in comparison with CXCL12; cited from earlier work
# Excerpt: To address the contribution of the RLR motif to MIF/CXCR4-specific cell signaling responses, we employed a genetically modified strain of Saccharomyces cerevisiae that replaces the yeast ste2 GPCR with human CXCR4 as previously reported. This cell system eliminates complications from mammalian cells that usually express more than one or all MIF cell surface receptors and is based on agonist-mediated activation of CXCR4 leading to a signaling cascade that results in β-galactosidase expression from the Fus1-lacZ reporter plasmid.
molecule,measurement,setting,value
"ERLRISPDRVYINYY [MIF(86–100), RLR-spanning MIF peptide]",inhibition of WT-MIF-mediated JVM-3 chemotaxis,[1]; peptide 10 nM and 100 nM,trend towards inhibition
same,inhibition of WT-MIF-mediated JVM-3 chemotaxis,[1]; peptide 1 µM,significant and complete blockade
"YSKLLCGLLAERLRI [MIF(76–90), RLR-spanning MIF peptide]",inhibition of WT-MIF-mediated JVM-3 chemotaxis,[1]; peptide 10 nM and 100 nM,ablated
B1,increase of random coil content vs WT-MIF,[2]; CD deconvolution by Dichroweb,approximately 20%
same,reduction of α-helix content vs WT-MIF,[2]; CD deconvolution by Dichroweb,12%
same,reduction of β-strand percentage vs WT-MIF,[2]; CD deconvolution by Dichroweb,7%
same,decrease in ordered secondary structural content vs WT-MIF,[2]; CD spectroscopy,20%
same,aggregation-tendency,[2],neither protein showed an aggregation-tendency
same,chemotactic activity on JVM-3 B cells,"[3]; RLR mutant 8 nM, 16 nM, 32 nM, p = ns, 24 h, Transwell 5 µm",did not exhibit a significant chemotactic activity
same,chemotactic activity on JVM-3 lymphocytes,[3]; RLR mutant 16 nM (optimal concentration of WT-MIF),failed to show any chemotactic activity
same,chemotactic activity on JVM-3 lymphocytes,"[3]; RLR mutant 32 nM, effect did not reach statistical significance",slight increase in activity
same,chemotactic effect compared with another chemoattractant,[3],Impaired chemotactic effect
same,chemotactic effect compared with another chemoattractant,[3]; listed as MIF R87A-L88A-R89A triple mutant,reduced cell migratory response
same,chemotactic effect compared with another chemoattractant,[3]; listed as RLR-mutant of MIF,reduction
same,"approximate molecular size of SEC peak, first species",[4]; suggests dimers,~23 kDa
same,"approximate molecular size of SEC peak, second species",[4]; suggests trimers,~38 kDa
same,stoichiometry N,[5],2 and 3
B2,aggregation-tendency,[2],neither protein showed an aggregation-tendency
same,type of agonism at CXCR4,[6],partial allosteric agonism
same,chemotactic effect compared with another chemoattractant,[3],lower than that of CXCL12

# From paper PMC5979958 (Scientific Reports, 2018)
